Consider one molecule from paper PMC5383425, “Differential CLE peptide perception by plant receptors implicated from structural and functional analyses of TDIF-TDR interactions” (PLoS ONE, 2017).

Square brackets hold non-standard residues; d marks the D form. Ends that are not written are not given here. Hyp = O=C(O)[C@@H]1C[C@@H](O)CN1

Common to all, as to assay: ITC
(Isothermal titration calorimetry measures the heat released or taken up as one component is titrated into another.)

Experiment [1] deals with T1, ecdTDR F281 alanine mutant (Arabidopsis thaliana, UniProt Q9FII5 30-642, alanine substitution of F281).
T1 sequence: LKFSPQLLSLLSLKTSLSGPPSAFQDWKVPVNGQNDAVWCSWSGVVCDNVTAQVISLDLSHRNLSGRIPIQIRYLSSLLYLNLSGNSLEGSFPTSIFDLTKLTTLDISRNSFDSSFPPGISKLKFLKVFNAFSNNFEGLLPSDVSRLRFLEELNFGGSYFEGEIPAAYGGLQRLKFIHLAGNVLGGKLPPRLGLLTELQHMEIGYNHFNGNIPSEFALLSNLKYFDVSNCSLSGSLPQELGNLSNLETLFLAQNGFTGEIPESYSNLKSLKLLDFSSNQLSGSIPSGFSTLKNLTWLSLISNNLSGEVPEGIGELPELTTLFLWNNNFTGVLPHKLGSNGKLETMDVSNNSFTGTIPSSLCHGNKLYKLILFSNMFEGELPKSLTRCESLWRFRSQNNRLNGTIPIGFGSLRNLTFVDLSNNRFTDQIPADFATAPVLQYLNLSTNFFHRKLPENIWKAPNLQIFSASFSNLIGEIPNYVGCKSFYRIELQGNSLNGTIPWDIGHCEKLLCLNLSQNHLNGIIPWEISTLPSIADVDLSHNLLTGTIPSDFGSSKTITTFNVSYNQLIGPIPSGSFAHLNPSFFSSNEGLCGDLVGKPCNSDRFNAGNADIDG

The target of experiment [2] is T2, ecdTDR F279 alanine mutant (Arabidopsis thaliana, UniProt Q9FII5 30-642, alanine substitution of F279).
T2 sequence: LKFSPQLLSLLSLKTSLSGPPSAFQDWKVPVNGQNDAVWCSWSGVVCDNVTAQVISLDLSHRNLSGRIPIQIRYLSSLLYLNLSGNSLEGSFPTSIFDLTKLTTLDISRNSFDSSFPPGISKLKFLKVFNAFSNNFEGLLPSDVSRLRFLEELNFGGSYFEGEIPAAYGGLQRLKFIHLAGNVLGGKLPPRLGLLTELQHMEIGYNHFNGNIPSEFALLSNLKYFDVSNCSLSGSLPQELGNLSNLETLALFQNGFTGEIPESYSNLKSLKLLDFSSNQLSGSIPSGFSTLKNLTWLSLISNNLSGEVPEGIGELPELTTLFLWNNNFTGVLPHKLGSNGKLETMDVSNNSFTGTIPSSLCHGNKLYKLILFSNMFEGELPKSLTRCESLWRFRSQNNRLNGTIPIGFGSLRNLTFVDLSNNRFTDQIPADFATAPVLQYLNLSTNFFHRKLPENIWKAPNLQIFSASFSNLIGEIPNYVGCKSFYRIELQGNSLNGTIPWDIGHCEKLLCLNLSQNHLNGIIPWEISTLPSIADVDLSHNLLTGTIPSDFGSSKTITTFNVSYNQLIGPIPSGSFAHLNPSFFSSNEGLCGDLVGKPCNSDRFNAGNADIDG

In experiment [3] the target is T3, ecdTDR Y234 alanine mutant (Arabidopsis thaliana, UniProt Q9FII5 30-642, alanine substitution of Y234).
T3 sequence: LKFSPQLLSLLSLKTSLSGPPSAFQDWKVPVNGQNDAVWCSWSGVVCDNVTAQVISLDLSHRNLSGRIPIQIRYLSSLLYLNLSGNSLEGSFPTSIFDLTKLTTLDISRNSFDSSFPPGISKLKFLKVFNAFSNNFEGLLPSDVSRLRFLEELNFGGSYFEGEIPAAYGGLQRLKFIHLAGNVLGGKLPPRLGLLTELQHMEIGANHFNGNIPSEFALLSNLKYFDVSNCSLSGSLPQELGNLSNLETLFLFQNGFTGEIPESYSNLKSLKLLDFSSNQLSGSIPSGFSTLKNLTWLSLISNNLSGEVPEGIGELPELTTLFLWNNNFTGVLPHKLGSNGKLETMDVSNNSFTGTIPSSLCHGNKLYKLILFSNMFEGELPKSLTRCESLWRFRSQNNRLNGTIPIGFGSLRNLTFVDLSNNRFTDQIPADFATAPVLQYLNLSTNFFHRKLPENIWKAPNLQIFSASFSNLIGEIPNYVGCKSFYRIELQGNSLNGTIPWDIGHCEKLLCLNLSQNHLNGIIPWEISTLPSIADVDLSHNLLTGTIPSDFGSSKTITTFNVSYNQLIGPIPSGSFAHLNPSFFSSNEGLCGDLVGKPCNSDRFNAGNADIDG

Another experiment addresses T4, ecdTDR W353A mutant (Arabidopsis thaliana, UniProt Q9FII5 30-642, W353A).
T4 sequence: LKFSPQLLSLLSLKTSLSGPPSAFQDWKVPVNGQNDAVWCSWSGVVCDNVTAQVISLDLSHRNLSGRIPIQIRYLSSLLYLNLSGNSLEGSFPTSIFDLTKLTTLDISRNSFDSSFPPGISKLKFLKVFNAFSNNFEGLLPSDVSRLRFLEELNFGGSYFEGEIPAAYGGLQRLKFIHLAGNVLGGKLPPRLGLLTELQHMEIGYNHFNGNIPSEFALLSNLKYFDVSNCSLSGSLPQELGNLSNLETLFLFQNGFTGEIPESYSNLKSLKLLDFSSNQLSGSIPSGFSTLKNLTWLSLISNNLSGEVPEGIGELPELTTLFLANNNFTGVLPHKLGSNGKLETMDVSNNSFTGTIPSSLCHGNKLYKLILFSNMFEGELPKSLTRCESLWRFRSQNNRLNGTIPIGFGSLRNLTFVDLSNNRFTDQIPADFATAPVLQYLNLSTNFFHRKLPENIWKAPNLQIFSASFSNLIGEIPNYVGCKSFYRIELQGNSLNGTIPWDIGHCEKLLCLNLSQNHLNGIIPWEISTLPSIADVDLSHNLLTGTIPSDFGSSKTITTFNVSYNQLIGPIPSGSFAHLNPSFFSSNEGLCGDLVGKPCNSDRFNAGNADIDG

B1: Tracheary Element Differentiation Inhibitory Factor (TDIF) peptide (peptide)
peptide: HEV[Hyp]SG[Hyp]NPISN
notes: TDIF, the 12-residue CLE peptide processed from CLE41 and CLE44 of A. thaliana; printed as HEV(Hyp)SG(Hyp)NPISN; numbers count on: the 12-residue peptide; CLE44 encodes the same peptide; also called wild type TDIF; wtTDIF; source: synthetic peptide (peptide 2.0)
Usually Kd stands for the constant that tells how readily two partners part at equilibrium. Read a high Kd as weaker binding. Regarding B1, the Kd in experiment [1] was found to be 787 nM; in experiment [2] it was 307 nM; in experiment [3], 1650 nM; in the experiment with ecdTDR W353A mutant it was 862 nM.
